The assay has as its system SOCS3 expression in CRC lines (Colo205, LS103, SW948, T84, SW480, HCT116). Briefly: qPCR of SOCS3 after IL-22 stimulation of CRC cell lines. The assay is classed as cell-based, human. Conditions: 24 h stimulation with IL-22, n=3. The source says: (A) qPCR analysis of IL22RA1 expression level on 3 KRAS-WT (Colo205, LS103, SW948) and 3 KRAS-mutant (T84, SW480, HCT116) CRC cell lines. n=3 *p<0.05, **p<0.01, one-way ANOVA with Tukey's post test for multiple comparisons. (B) Representative FACS plots of IL-22RA1 expression on the Colo205 (KRAS-WT, IL-22RA1^high), T84 (KRAS-Mut, IL-22RA1^high), and SW480 (KRAS-mutant, IL-22RA1^low) lines. (C) Western blot analysis of activation of STAT3, ERK, and Akt signaling pathways in 6 CRC lines following 24 h stimulation with 1 ng/mL IL-22, 10 ng/mL IL-22, and 1 ng/mL IL-6. 1 blot representative of 3 independent experiments.
Colo205, LS1034, SW948, SW480, T84, and HCT116 (ATCC) colorectal cancer cell (CRC) lines were a generous gift from Dr. Simon Leedham and were confirmed to be mycoplasma free. X-MAN DLD-1 isogenic cells were purchased from Horizon Discovery. […]
RNA was extracted from cultured monolayers of CRC lines, suspensions of LIM1863 spheroids, and CRC line derived spheres using the RNeasy Mini Kit (Qiagen) according to the manufacturers protocol. cDNA was synthesized using the High-Capacity cDNA Reverse Transcription Kit (Applied Biosystems). Gene expression was analyzed using Taqman® Gene Expression Assays (Applied Biosystems) and run with Precision 2× Master Mix (Primerdesign) in 384 well plates using the ViiA7 Real-Time PCR System (Applied Biosystems). […]
For orientation: In qPCR the cycle at which signal appears reflects the starting amount.

This is an account of results in patent publication US20180147231A1, “METHOD FOR TREATMENT AND PROGNOSIS OF COLORECTAL CANCER” (Oxford University Innovation Limited, priority 2015, published 2018).

B1: IL-22: recombinant human IL-22 (R&D Systems), IL-10 superfamily cytokine; human sequence SEQ ID NO: 5 (protein, listed as Homo sapiens)
chain: MAALQKSVSSFLMGTLATSCLLLLALLVQGGAAAPISSHCRLDKSNFQQPYITNRTFMLAKEASLADNNTDVRLIGEKLFHGVSMSERCYLMKQVLNFTLEEVLFPQSDRFQPYMQEVVPFLARLSNRLSTCHIEGDDLHIQRNVQKLKDTVKKLGESGEIKAIGELDLLFMSLRNACI
On to B1, for which the “SOCS3 expression (confirmation of active downstream IL-22 signaling)” value is recorded as “upregulation of SOCS3”.
